Data as given in US20230212319A1, “NOVEL ANTIGEN BINDING DOMAINS AND SYNTHETIC ANTIGEN RECEPTORS INCORPORATING THE SAME” (University of Southern California, priority 2020, published 2023).

Key:
Type in all cases: cell-based
[1] = test system: RS;411; assay: JNG assay, co-culture with RS;411 cells; conditions: co-culture with RS411
Summary of the method: (§1)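 Jurkat NFAT-GFP (JNG) cells stably transduced with SARs by lentivirus, with drug selection where the construct carried a resistance gene, then co-cultured with target cells at E:T ~1:2 for ~4–18 h. % GFP-positive cells measured by FACS against parental JNG; +/- to 5+ correspond to ~5–50% GFP-positive.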

[2] = test system: RAJI cells; assay: JNG assay, co-culture with RAJI cells; conditions: JNG cells expressing construct, co-culture with Raji
Summary of the method: as §1

[3] = test system: Nalm6 cells; assay: JNG assay, co-culture with Nalm6 cells; conditions: co-culture with Nalm6
Summary of the method: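 Drug-selected populations of SAR-expressing Jurkat-NFAT-GFP cells meet target cells (about 1:2 E:T) for roughly 4–18 h. Flow cytometry gives % GFP+ cells, graded +/- to 5+ (≈5% to ≈50%) relative to the parental control.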

[4] = test system: RAJI-CD19-KO cells; assay: JNG assay, co-culture with RAJI-CD19-KO cells; conditions: co-culture with Raji-CD19-KO
Summary of the method: as §1

[5] = test system: L363 cells; assay: JNG assay, co-culture with L363 cells; conditions: co-culture with L363
Summary of the method: as §1

B1: 22142 (protein)
chain: MALPVTALLLPLALLLHAARPQVQLVESGGGLVQPGGSLRLSCAASGFTFTNHAMSWVRQAPGKGLELVSSISGNGRTTYYADSVKGRFTISRDISKNTLDLQMNSLRAEDTAVYYCAKDGGETLVDSRGQGTLVTVSSLEGGGGSGGGGSIEGGGGSGGGGSKVQLLESGGGLVQPGGSLRLSCAASGFIFSSYAMSWVRQAPGKGQEWVSGVSGTGVNTYYADSVKGRFTISRDNSKNTLYLQMNSLRAEDTAVYYCASGKGWDSGSWYEDYRGQGTLVTVSSGTGGGGSGGGGSGGGGSEFDIQMTQSPSSLSASVGDRVTITCKASDHINNWLAWYQQKPGQAPKLLIYGATTLETGVPSRFSGSGSGTDYTLTISSLQPEDFATYYCQQSWNTPWTFGQGTKLEIKRLEIQNPDPAVYQLRDSKSSDKSVCLFTDFDSQTNVSQSKDSDVYITDKCVLDMRSMDFKSNSAVAWSNKSDFACANAFNNSIIPEDTFFPSSDVPCDVKLVEKSFETDTNLNFQNLSVIGFRILLLKVAGFNLLMTLRLWSSRAKRSGSGVKQTLNFDLLKLAGDVESNPGPTSATMDWIWRILFLVGAATGAHSGPQVQLQESGGGLAQAGGSLRLSCAASGRTFSMGWFRQAPGKEREFVAAITYSGGSPYYASSVRGRFTISRDNAKNTVYLQMNSLKPEDTAVYYCAANPTYGSDWNAENWGQGTQVTVSSGSGGGGSGGGGSGGGGSFEQVQLQQPGAELVKPGASVKMSCKASGYAFSSYWINWMKQKPGQGLEWIGQIYPGDGDTNYNGKFKGRATLTADTSSSTAYMQLSSLTSEDSAVYFCARSITTVVGCAMDYWGQGTSVTVSSTREDLKNVFPPEVAVFEPSKAEIAHTQKATLVCLATGFYPDHVELSWWVNGKEVHSGVCTDPQPLKEQPALNDSRYCLSSRLRVSATFWQNPRNHFRCQVQFYGLSENDEWTQDRAKPVTQIVSAEAWGRADCGITSASYHQGVLSATILYEILLGKATLYAVLVSALVLMAMVKRKDSRGRAKRSGSGATNFSLLKQAGDVEENPGPSRGHMTEYKPTVRLATRDDVPRAVRTLAAAFADYPATRHTVDPDRHIERVTELQELFLTRVGLDIGKVWVADDGAAVAVWTTPESVEAGAVFAEIGPRMAELSGSRLAAQQQMEGLLAPHRPKEPAWFLATVGVSPDHQGKGLGSAVVLPGVEAAERAGVPAFLETSAPRNLPFYERLGFTVTADVEVPEGPRTWCMTRKPGA
- NFAT-GFP ASSAY: RS411 [1]: +/- (refer to approximately 5%, 10%, 20%, 30%, 40% and 50% GFP positive cells)
- NFAT-GFP ASSAY: Raji [2]: + (refer to approximately 5%, 10%, 20%, 30%, 40% and 50% GFP positive cells)
- NFAT-GFP ASSAY: Nalm6 [3]: + (refer to approximately 5%, 10%, 20%, 30%, 40% and 50% GFP positive cells)
- NFAT-GFP ASSAY: Raji-CD19-KO [4]: + (refer to approximately 5%, 10%, 20%, 30%, 40% and 50% GFP positive cells)

B2: 22109 (protein)
chain: MALPVTALLLPLALLLHAARPMLPAPKNLVVSRITEDSARLSWTAPDAAFDSFPIRYIETLIWGEAIWLDVPGSERSYDLTGLKPGTEYAVVITGVKGGRFSSPLVASFTTGTGGGGSGGGGSGGGGSEFDIQMTQSPSSLSASVGDRVTITCKASDHINNWLAWYQQKPGQAPKLLIYGATTLETGVPSRFSGSGSGTDYTLTISSLQPEDFATYYCQQSWNTPWTFGQGTKLEIKRLEDLKNVFPPEVAVFEPSEAEISHTQKATLVCLATGFYPDHVELSWWVNGKEVHSGVCTDPQPLKEQPALNDSRYCLSSRLRVSATFWQNPRNHFRCQVQFYGLSENDEWTQDRAKPVTQIVSAEAWGRADCGFTSESYQQGVLSATILYEILLGKATLYAVLVSALVLMAMVKRKDSRGRAKRSGSGATNFSLLKQAGDVEENPGPTSMDWIWRILFLVGAATGAHSFEQVQLQQPGAELVKPGASVKMSCKASGYAFSSYWINWMKQKPGQGLEWIGQIYPGDGDTNYNGKFKGRATLTADTSSSTAYMQLSSLTSEDSAVYFCARSITTVVGCAMDYWGQGTSVTVSSTRIQNPDPAVYQLRDSKSSDKSVCLFTDFDSQTNVSQSKDSDVYITDKCVLDMRSMDFKSNSAVAWSNKSDFACANAFNNSIIPEDTFFPSPESSCDVKLVEKSFETDTNLNFQNLSVIGFRILLLKVAGFNLLMTLRLWSSRAKRSGSGVKQTLNFDLLKLAGDVESNPGPSRGHMTEYKPTVRLATRDDVPRAVRTLAAAFADYPATRHTVDPDRHIERVTELQELFLTRVGLDIGKVWVADDGAAVAVWTTPESVEAGAVFAEIGPRMAELSGSRLAAQQQMEGLLAPHRPKEPAWFLATVGVSPDHQGKGLGSAVVLPGVEAAERAGVPAFLETSAPRNLPFYERLGFTVTADVEVPEGPRTWCMTRKPGA
- NFAT-GFP ASSAY: RS411 [1]: 4+ (refer to approximately 5%, 10%, 20%, 30%, 40% and 50% GFP positive cells)
- NFAT-GFP ASSAY: Raji [2]: 2+ (refer to approximately 5%, 10%, 20%, 30%, 40% and 50% GFP positive cells)
- NFAT-GFP ASSAY: Nalm6 [3]: 2+ (refer to approximately 5%, 10%, 20%, 30%, 40% and 50% GFP positive cells)
- NFAT-GFP ASSAY: Raji-CD19-KO [4]: +/- (refer to approximately 5%, 10%, 20%, 30%, 40% and 50% GFP positive cells)
- NFAT-GFP ASSAY: L363 [5]: +/- (refer to approximately 5%, 10%, 20%, 30%, 40% and 50% GFP positive cells)

B3: 22111 (protein)
chain: MALPVTALLLPLALLLHAARPEVQLLESGGGLVQPGGSLRLSCAASGFTFSSYAMSWVRQAPGKGLEWVSSISGSGDYIYYADSVKGRFTISRDISKNTLYLQMNSLRAEDTAVYYCAKEGTGANSSLADYRGQGTLVTVSSGTGGGGSGGGGSGGGGSEFDIQMTQSPSSLSASVGDRVTITCKASDHINNWLAWYQQKPGQAPKLLIYGATTLETGVPSRFSGSGSGTDYTLTISSLQPEDFATYYCQQSWNTPWTFGQGTKLEIKRLEDLKNVFPPEVAVFEPSEAEISHTQKATLVCLATGFYPDHVELSWWVNGKEVHSGVCTDPQPLKEQPALNDSRYCLSSRLRVSATFWQNPRNHFRCQVQFYGLSENDEWTQDRAKPVTQIVSAEAWGRADCGFTSESYQQGVLSATILYEILLGKATLYAVLVSALVLMAMVKRKDSRGRAKRSGSGATNFSLLKQAGDVEENPGPTSMDWIWRILFLVGAATGAHSFEQVQLQQPGAELVKPGASVKMSCKASGYAFSSYWINWMKQKPGQGLEWIGQIYPGDGDTNYNGKFKGRATLTADTSSSTAYMQLSSLTSEDSAVYFCARSITTVVGCAMDYWGQGTSVTVSSTRIQNPDPAVYQLRDSKSSDKSVCLFTDFDSQTNVSQSKDSDVYITDKCVLDMRSMDFKSNSAVAWSNKSDFACANAFNNSIIPEDTFFPSPESSCDVKLVEKSFETDTNLNFQNLSVIGFRILLLKVAGFNLLMTLRLWSSRAKRSGSGVKQTLNFDLLKLAGDVESNPGPSRGHMTEYKPTVRLATRDDVPRAVRTLAAAFADYPATRHTVDPDRHIERVTELQELFLTRVGLDIGKVWVADDGAAVAVWTTPESVEAGAVFAEIGPRMAELSGSRLAAQQQMEGLLAPHRPKEPAWFLATVGVSPDHQGKGLGSAVVLPGVEAAERAGVPAFLETSAPRNLPFYERLGFTVTADVEVPEGPRTWCMTRKPGA
- NFAT-GFP ASSAY: RS411 [1]: 4+ (refer to approximately 5%, 10%, 20%, 30%, 40% and 50% GFP positive cells)
- NFAT-GFP ASSAY: Raji [2]: 4+ (refer to approximately 5%, 10%, 20%, 30%, 40% and 50% GFP positive cells)
- NFAT-GFP ASSAY: Nalm6 [3]: 2+ (refer to approximately 5%, 10%, 20%, 30%, 40% and 50% GFP positive cells)
- NFAT-GFP ASSAY: Raji-CD19-KO [4]: 3+ (refer to approximately 5%, 10%, 20%, 30%, 40% and 50% GFP positive cells)
- NFAT-GFP ASSAY: L363 [5]: 3+ (refer to approximately 5%, 10%, 20%, 30%, 40% and 50% GFP positive cells)

B4: 22127 (protein)
chain: MALPVTALLLPLALLLHAARPMLPAPKNLVVSRITEDSARLSWTAPDAAFDSFPIRYIETLIWGEAIWLDVPGSERSYDLTGLKPGTEYAVVITGVKGGRFSSPLVASFTTGTGGGGSGGGGSGGGGSEFDIQMTQSPSSLSASVGDRVTITCKASDHINNWLAWYQQKPGQAPKLLIYGATTLETGVPSRFSGSGSGTDYTLTISSLQPEDFATYYCQQSWNTPWTFGQGTKLEIKRLEIQNPDPAVYQLRDSKSSDKSVCLFTDFDSQTNVSQSKDSDVYITDKCVLDMRSMDFKSNSAVAWSNKSDFACANAFNNSIIPEDTFFPSSDVPCDVKLVEKSFETDTNLNFQNLSVIGFRILLLKVAGFNLLMTLRLWSSRAKRSGSGVKQTLNFDLLKLAGDVESNPGPTSATMDWIWRILFLVGAATGAHSGPQVQLQESGGGLAQAGGSLRLSCAASGRTFSMGWFRQAPGKEREFVAAITYSGGSPYYASSVRGRFTISRDNAKNTVYLQMNSLKPEDTAVYYCAANPTYGSDWNAENWGQGTQVTVSSGSGGGGSGGGGSGGGGSFEQVQLQQPGAELVKPGASVKMSCKASGYAFSSYWINWMKQKPGQGLEWIGQIYPGDGDTNYNGKFKGRATLTADTSSSTAYMQLSSLTSEDSAVYFCARSITTVVGCAMDYWGQGTSVTVSSTREDLKNVFPPEVAVFEPSKAEIAHTQKATLVCLATGFYPDHVELSWWVNGKEVHSGVCTDPQPLKEQPALNDSRYCLSSRLRVSATFWQNPRNHFRCQVQFYGLSENDEWTQDRAKPVTQIVSAEAWGRADCGITSASYHQGVLSATILYEILLGKATLYAVLVSALVLMAMVKRKDSRGRAKRSGSGATNFSLLKQAGDVEENPGPSRGHMTEYKPTVRLATRDDVPRAVRTLAAAFADYPATRHTVDPDRHIERVTELQELFLTRVGLDIGKVWVADDGAAVAVWTTPESVEAGAVFAEIGPRMAELSGSRLAAQQQMEGLLAPHRPKEPAWFLATVGVSPDHQGKGLGSAVVLPGVEAAERAGVPAFLETSAPRNLPFYERLGFTVTADVEVPEGPRTWCMTRKPGA
- NFAT-GFP ASSAY: RS411 [1]: Raji (+), Raji-CD19-KO (+), Nalm6 (+), L363 (+), RS411 (+) (refer to approximately 5%, 10%, 20%, 30%, 40% and 50% GFP positive cells)
- NFAT-GFP ASSAY: Raji [2]: Raji (+), Raji-CD19-KO (+), Nalm6 (+), L363 (+), RS411 (+) (refer to approximately 5%, 10%, 20%, 30%, 40% and 50% GFP positive cells)
- NFAT-GFP ASSAY: Nalm6 [3]: Raji (+), Raji-CD19-KO (+), Nalm6 (+), L363 (+), RS411 (+) (refer to approximately 5%, 10%, 20%, 30%, 40% and 50% GFP positive cells)
- NFAT-GFP ASSAY: Raji-CD19-KO [4]: Raji (+), Raji-CD19-KO (+), Nalm6 (+), L363 (+), RS411 (+) (refer to approximately 5%, 10%, 20%, 30%, 40% and 50% GFP positive cells)
- NFAT-GFP ASSAY: L363 [5]: Raji (+), Raji-CD19-KO (+), Nalm6 (+), L363 (+), RS411 (+) (refer to approximately 5%, 10%, 20%, 30%, 40% and 50% GFP positive cells)
